Changes are numbered by the printed parent chain.

Here are results for 2 molecules from article PMC8728441, “Biosynthesis of the redox cofactor mycofactocin is controlled by the transcriptional regulator MftR and induced by long-chain acyl-CoA species” (The Journal of Biological Chemistry, 2021).

Data set [1] deals with T1, MftR WT (Mycobacterium smegmatis mc2155, UniProt A0QSB5 1-200).
T1 sequence: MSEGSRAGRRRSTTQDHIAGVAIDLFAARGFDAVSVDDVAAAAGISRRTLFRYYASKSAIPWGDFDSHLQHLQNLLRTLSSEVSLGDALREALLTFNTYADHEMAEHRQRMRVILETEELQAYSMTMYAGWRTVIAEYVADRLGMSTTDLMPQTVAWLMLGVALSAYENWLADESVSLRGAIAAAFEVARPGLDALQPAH
The data set is described as follows: EMSA. The settings on record: EMSA: 50 mM Hepes, 50 mM NaCl, 0.1 mM EDTA, pH 7.5, room temperature 10 min, 5% PAGE in 1x TBE on ice; footprinting: 30 C 30 min; FP conditions not in material. (Mobility shift assays separate free from complexed probe on a gel.)

The target of another data set is T2, MftR D16R (Mycobacterium smegmatis mc2155, UniProt A0QSB5 1-200, D16R).
T2 sequence: T1 sequence with D16R
The data set can be described thus: EMSA; 100 uM oleoyl-CoA; EMSA: 50 mM Hepes, 50 mM NaCl, 0.1 mM EDTA, pH 7.5, room temperature 10 min, 5% PAGE in 1x TBE on ice; footprinting: 30 C 30 min; FP conditions not in material. Text fold changes for R29A/R48A and L120R/M127A are swapped relative to Table 2; table values used. As to conditions: protein: recombinant; tags: His-tag (pET-28a); chain copies: 2; label: 6-FAM; blunt.

A further data set addresses T3, MftR H68A (Mycobacterium smegmatis mc2155, UniProt A0QSB5 1-200, H68A).
T3 sequence: T1 sequence with H68A
The data set is described as above. The settings on record: protein: recombinant; tags: His-tag (pET-28a); chain copies: 2; label: 6-FAM; blunt.

A further data set concerns the target T4, MftR R48A (Mycobacterium smegmatis mc2155, UniProt A0QSB5 1-200, R48A).
T4 sequence: T1 sequence with R48A
The data set is described as follows: fluorescence polarization; EMSA: 50 mM Hepes, 50 mM NaCl, 0.1 mM EDTA, pH 7.5, room temperature 10 min, 5% PAGE in 1x TBE on ice; footprinting: 30 C 30 min; FP conditions not in material. Text fold changes for R29A/R48A and L120R/M127A are swapped relative to Table 2; table values used. The settings on record: protein: recombinant; tags: His-tag (pET-28a); chain copies: 2; label: 6-FAM; blunt. (Polarisation of emitted light reports the rotation of a fluorescent probe.)

The next data set addresses T5, MftR D38A (Mycobacterium smegmatis mc2155, UniProt A0QSB5 1-200, D38A).
T5 sequence: T1 sequence with D38A
The data set is described as above. The settings on record: protein: recombinant; tags: His-tag (pET-28a); chain copies: 2; label: 6-FAM; blunt.

For a further data set, the target named is T6, MftR R29A (Mycobacterium smegmatis mc2155, UniProt A0QSB5 1-200, R29A).
T6 sequence: T1 sequence with R29A
The description is as above. The settings on record: protein: recombinant; tags: His-tag (pET-28a); chain copies: 2; label: 6-FAM; blunt.

The target in data set [2] is T1, MftR WT. The description is as above. The settings on record: protein: recombinant; tags: His-tag (pET-28a, NdeI/XhoI); chain copies: 2; label: 6-FAM; blunt.
The target in another data set is T7, MftR L120R (Mycobacterium smegmatis mc2155, UniProt A0QSB5 1-200, L120R).
T7 sequence: T1 sequence with L120R
The data set is described as above. As to conditions: protein: recombinant; tags: His-tag (pET-28a); chain copies: 2; label: 6-FAM; blunt.

Another data set has as its target T8, MftR M127A (Mycobacterium smegmatis mc2155, UniProt A0QSB5 1-200, M127A).
T8 sequence: T1 sequence with M127A
Described as above. The settings on record: protein: recombinant; tags: His-tag (pET-28a); chain copies: 2; label: 6-FAM; blunt.

For orientation: Kd means the concentration at which binding is half-saturated. For Pmft, in the data set with MftR WT [1], the dissociation constant (Kd) amounted to 0.6 µM.

B1: FAM-Omft (dsDNA)
DNA 1: TCCATTCTGGCACTCGATGCCATATAT
DNA 2: ATATATGGCATCGAGTGCCAGAATGGA
B1: the figures for the binding result with MftR D16R, with MftR H68A and with MftR D38A were “binds”, “binds” and “no binding”, respectively. The equilibrium dissociation constant (Kd) with MftR R48A came out at 13 ± 1.1 µM; with MftR R29A, 20.5 ± 2 µM; with MftR WT [2], 1.3 ± 0.6 µM; in the data set with MftR L120R it was 28 ± 6 µM; with MftR M127A, 13 ± 6 µM.
